Results on 8 molecules are retold here after patent US20210380678A1 (SURROZEN OPERATING, published 2021).

The target of experiment [1] is T1, human ASGR1 extracellular domain (hASGR1 ECD) (human, UniProt P07306 62-291, biotinylated (His-Avi tag)).
T1 construct: His-Avi tag at the N-terminus, biotinylated for BLI; also called human ASGR1 ECD
T1 sequence: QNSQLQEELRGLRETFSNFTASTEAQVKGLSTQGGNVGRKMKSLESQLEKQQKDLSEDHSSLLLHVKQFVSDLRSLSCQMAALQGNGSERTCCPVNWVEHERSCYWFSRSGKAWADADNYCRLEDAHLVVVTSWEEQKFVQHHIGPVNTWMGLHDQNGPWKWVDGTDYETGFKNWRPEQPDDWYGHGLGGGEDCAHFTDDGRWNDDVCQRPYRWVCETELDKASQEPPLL
Description: BLI, Fab on hASGR1.

Experiment [2] has as its target T2, human RNF43 extracellular domain (hRNF43 ECD) (human, UniProt Q68DV7 44-197, biotinylated (His-Avi tag)).
T2 construct: Expressed with a His-Avi tag at the N-terminus and biotinylated; also called human RNF3 (Q44-D198)
T2 sequence: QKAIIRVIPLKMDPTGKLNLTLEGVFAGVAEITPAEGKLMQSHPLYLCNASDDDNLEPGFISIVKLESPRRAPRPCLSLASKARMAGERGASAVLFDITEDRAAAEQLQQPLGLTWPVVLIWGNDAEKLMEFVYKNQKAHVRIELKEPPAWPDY
Description: ELISA (binding specificity). In general terms: In an ELISA, binding on a coated surface is turned into a signal by an enzyme label.

The target of experiment [3] is T3, human ZNRF3 extracellular domain (hZNRF3 ECD) (human, UniProt Q9ULT6 56-219, biotinylated (His-Avi tag)).
T3 construct: Expressed with a His-Avi tag at the N-terminus and biotinylated; also called ZRNF3
T3 sequence: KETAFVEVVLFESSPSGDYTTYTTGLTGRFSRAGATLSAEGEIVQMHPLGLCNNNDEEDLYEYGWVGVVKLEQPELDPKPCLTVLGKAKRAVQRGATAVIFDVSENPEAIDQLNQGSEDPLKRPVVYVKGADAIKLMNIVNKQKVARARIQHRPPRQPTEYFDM
Description: ELISA (binding specificity).

Experiment [4] concerns the target T4, human ASGR2 extracellular domain (hASGR2 ECD) (human, UniProt P07307 86-311, biotinylated (His/Avi tag)).
T4 construct: Cloned with a His/Avi tag
T4 sequence: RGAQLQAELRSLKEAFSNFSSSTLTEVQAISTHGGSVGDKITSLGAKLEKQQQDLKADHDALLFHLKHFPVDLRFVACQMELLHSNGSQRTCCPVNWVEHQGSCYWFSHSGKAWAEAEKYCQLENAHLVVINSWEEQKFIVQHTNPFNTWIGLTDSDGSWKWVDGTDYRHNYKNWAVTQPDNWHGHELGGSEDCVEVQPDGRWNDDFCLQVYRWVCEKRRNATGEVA
Description: BLI, Fab on hASGR2. For orientation: In BLI a coated tip is dipped into the sample, and binding shifts an interference pattern.

In experiment [5] the target is T3, human ZNRF3 extracellular domain …. As to the kind of experiment: BLI (Octet), biotinylated ZNRF3 ECD on SA sensor. As to the method: (§1) Affinity measurement: Binding kinetics of the RSPO-derived proteins to LGRS, RNF43, or ZNRF3, and binding of the anti-ASGR Fabs to human and/or mouse ASGR1 were determined by bio-layer interferometry (BLI) using Octet Red 96 (PALL ForteBio, Fremont, CA) instruments at 30° C., 1000 rpm with either streptavidin (SA) or anti-hIgG Fc capture (AHC) biosensors. […] Following capture of ECDs of RNF43, ZNRF3 or LGRS, the biosensors were dipped into wells containing the relevant test molecules at 7 different concentrations in running buffer plus a well with only running buffer as a reference channel. KD was determined by steady-state analysis based on the average responses between 140 to 145 seconds of association phase, for binding to LGRS, RNF43, and ZNRF3. For the binding to ASGR, KD was determined by curve model fitting using the Octet® Red data analysis software (Fortebio)

In experiment [6] the target is T5, Fc portion of human IgG1-fused LGR5-ECD (R&D systems) (human, UniProt O75473 22-557, limits assumed).
T5 construct: extracellular domain; Bought reagent; also called LGRS; recombinant LGR5 protein; not shown: Fc portion of human IgG1
T5 sequence (looked up): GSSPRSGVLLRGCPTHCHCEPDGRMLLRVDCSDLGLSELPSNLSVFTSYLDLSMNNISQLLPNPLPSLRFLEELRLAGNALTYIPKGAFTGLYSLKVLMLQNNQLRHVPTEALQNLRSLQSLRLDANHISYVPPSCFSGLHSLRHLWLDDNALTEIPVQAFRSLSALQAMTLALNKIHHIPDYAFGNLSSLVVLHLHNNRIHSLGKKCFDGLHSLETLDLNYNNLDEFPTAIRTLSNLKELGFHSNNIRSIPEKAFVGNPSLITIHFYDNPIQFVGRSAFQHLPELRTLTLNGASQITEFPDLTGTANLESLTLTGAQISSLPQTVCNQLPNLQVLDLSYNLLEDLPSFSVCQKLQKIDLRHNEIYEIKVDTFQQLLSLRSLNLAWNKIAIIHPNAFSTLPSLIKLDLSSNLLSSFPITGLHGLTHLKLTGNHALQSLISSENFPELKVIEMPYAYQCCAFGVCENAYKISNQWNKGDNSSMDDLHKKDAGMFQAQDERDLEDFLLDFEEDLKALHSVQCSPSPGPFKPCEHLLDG
Description: BLI (Octet), LGR5-ECD-Fc on AHC sensor. As to the method: as §1

For experiment [7], the target named is T2, human RNF43 extracellular domain …. Description: BLI (Octet), biotinylated RNF43 ECD on SA sensor. Here is the method: as §1
In experiment [8] the target is T6, mouse ASGR1 extracellular domain (mASGR1 ECD) (mouse, biotinylated (His-Avi tag)).
T6 construct: His-Avi tag at the C-terminus, biotinylated; also called murine ASGR1; mouse ASGR1 (Q61-N284)
T6 chain: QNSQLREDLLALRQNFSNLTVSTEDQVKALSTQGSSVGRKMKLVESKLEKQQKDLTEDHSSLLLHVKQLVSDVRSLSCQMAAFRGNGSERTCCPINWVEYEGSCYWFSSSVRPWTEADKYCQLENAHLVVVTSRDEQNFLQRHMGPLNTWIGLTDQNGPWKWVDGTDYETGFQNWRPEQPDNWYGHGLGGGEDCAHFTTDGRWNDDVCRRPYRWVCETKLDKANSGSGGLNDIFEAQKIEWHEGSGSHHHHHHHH
Description: BLI (Octet), Fab on biotinylated ASGR1 ECD, curve model fitting; Kd only in FIG. 9A. As to the method: as §1

In experiment [9] the target is T1, human ASGR1 extracellular domain …. The experiment is described as above. Here is the method:
as §1

B1: LP1-8M24 Fab (Fab, V domains shown)
VH: QVQLQQSGAELARPGASVKLSCKASGYTFTNYGINWVKQRTGQGLEWIGEIFPRSDNTFYNEKFKGKATLTADKSSTTAYMELRSLTSEDSAVYFCARKGRDYGTSHYFDYWGQGTTLTVSS
VL: DIQMTQSPASLSVSVGETVTITCRISENIYSNLAWYQQKQGKSPHLLVYAAINLADGVPSRFSGSGSGTQFSLKINSLQSEDFGSYYCQHFWGTPFTFGSGTKLEIK
notes: Tested as Fab, from hybridoma development
In the case of B1, the binding result in [1] was “binds”.

B2: LP1-2I13 Fab (Fab, V domains shown)
VH: EVQLVESGGGLVKPGGSRKLSCAASGFTFSDYGMHWVRQAPEKGLEWVAYISSGSSTIYYADTVKGRFTISRDNAKNTLFLQMTSLRSEDTAMYYCSRKGGFGDYEKSYAMDYWGQGTSVTVSS
VL: DIQMTQSPASLSASVGETVTITCRASENIYSYLVWYQQKQGKSPQLLVYNAKTLAEGVPSRFSGSGSGTQFSLKINSLQPEDFGSYYCQHHYGTWTFGGGIKLEIK
notes: as for B1
As for B2, the binding result in [1] was “binds”.

B3: 020S-F07 (antibody, V domains shown)
VH: EVQLLESGGGLVQPGGSLRLSCAASGFTFSNYAMGWVRQAPGKGLEWVSYISRSSSTIYYADSVKGRFTISRDNSKNTLYLQMNSLRAEDTAVYYCARRRDGYNWGYWGQGTLVTVSS
VL: DIQMTQSPSSLSASVGDRVTITCRASQDISNSLNWYQQKPGKAPKLLIYAASTLQSGVPSRFSGSGSGTDFTLTISSLQPEDFATYYCQQSYSPPHTFGGGTKVEIK
In the case of B3, the binding result in experiment [2] and in [3] was “binds” each time.

B4: Abv-3D11 Fab (Fab, V domains shown)
VH: EVQLVESGGGLVQPKGSLKLSCAASGFSFNTYAMNWVRQAPGKGLEWVARIRSKSNNYATYYADSVKDRFTISRDDSESMLYLQMNNLKTEDTAMYYCVRPRYDYWYFDVWGTGTTVTVSS
VL: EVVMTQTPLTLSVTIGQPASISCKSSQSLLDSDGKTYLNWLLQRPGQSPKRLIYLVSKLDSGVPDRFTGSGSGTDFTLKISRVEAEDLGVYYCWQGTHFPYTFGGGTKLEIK
notes: as for B1
For the molecule B4, the binding result in experiment [4] is on record as “binds”.

B5: αGFP-RSPO2-RA (anti-GFP, RSPO2 (F105R/F109A)) (other)
chain: QVQLVESGGGLVQPGGSLRLSCAASGFTFSRYGMHWVRQAPGKGLEWVSGISSIGSNTYYADSVKGRFTISRDNSKNTLYLQMNSLRAEDTAVYYCARWYKTYIDVWGQGTLVTVSSGGGGSGGGGSGGGGSDIELTQPPSVSVAPGQTARISCSGDNLGKKYVYWYQQKPGQAPVLVIYGDDERPSGIPERFSGSNSGNTATLTISGTQAEDEADYYCASYDSSHILIVFGGGTKLTVLGSGGSNPICKGCLSCSKDNGCSRCQQKLFFFLRREGMRQYGECLHSCPSGYYGHRAPDMNRCARCRIENCDSCRSKDACTKCKVGFYLHRGRCFDECPDGFAPLEETMECVEGGDYKDDDDKGSHHHHHHHH
notes: scFv against GFP fused to the RSPO2 Fu1-Fu2 fragment with F105R/F109A; FLAG-His tag
Consider B5, for which the binding result in experiment [5] is given as “binds”; in experiment [6], “no binding”; in [7], “binds”.

B6: Abv-10B8 Fab (Fab, V domains shown)
VH: DVKLVESGEGLVKPGGSLKLSCAASGFTFSSYAMSWVRQTPEKRLEWVAYISSGGDYIYYVDTVKGRFTISRDNARNTLYLQMSSLKSEDTAVYYCTREGTGGMDYWGQGTSVTVSS
VL: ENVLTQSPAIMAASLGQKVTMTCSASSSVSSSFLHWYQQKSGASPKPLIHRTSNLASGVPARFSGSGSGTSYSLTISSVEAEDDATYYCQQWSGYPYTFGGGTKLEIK
notes: as for B1
Turning to B6, the binding result in [4] was “binds”.

B7: αTFR1-RSPO2-5mut (anti-TFR1, RSPO2 (R65A/R69A/Q70A/F105A/F109A)) (other)
chain: QVQLQQSGPELVRPGVSVKISCKGSGYTFTDYAMHWVKQSHAKSLEWIGGISTYFGRTNYNQKFKGRATMTVDKSSSTAYMELARLTSEDSALYYCARGLSGNYVMDYWGQGTSVTVSSGGGGSGGGGSGGGGSDIVLFQSPASLAVSLGQRATISCRASESVDDYGNSFMHWYQQKPGQPPKLLIYRASNLESGIPARFSGSGSRTDFTLTINPVEADDVATYYCQQSNEAPPTFGGGTKLEIRGSGGSNPICKGCLSCSKDNGCSRCQQKLFFFLRAEGMAAYGECLHSCPSGYYGHRAPDMNRCARCRIENCDSCRSKDACTKCKVGFYLHRGRCFDECPDGFAPLEETMECVEGGDYKDDDDKGSHHHHHHHH
notes: FLAG-His tag; also called αTFR1-RSPO2-Smut; αTFR-RPOS-5mut
Consider B7, for which the binding result in [5], in experiment [6] and in [7] was “no binding” in each case.

B8: anti-ASGR1 Fab (Fab, V domains shown)
VH: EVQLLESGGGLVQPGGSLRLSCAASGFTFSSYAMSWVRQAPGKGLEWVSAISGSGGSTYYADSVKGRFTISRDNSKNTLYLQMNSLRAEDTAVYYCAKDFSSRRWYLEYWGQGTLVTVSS
VL: DIELTQDPAVSVALGQTVRITCQGDSLRSYYASWYQQKPGQAPVLVIYGKNNRPSGIPDRFSGSSSGNTASLTITGAQAEDEADYYCNSLERIGYLSYVFGGGTKLTVLG
notes: Made with a (His)6 tag at the C-terminus of the human IgG1 CH1 domain after a 5-mer linker (GSGSG); also called αASGR1 antibody (e.g., RO-01) expressed as a Fab
On to B8, for which the binding result in [8] and in experiment [9] was “binds” throughout.
